Data on five substances can be found in article PMC4452267.

For series [1], the target named is T1, PpsR (Rubrivivax gelatinosus) (UniProt I0HUJ5).
T1 sequence: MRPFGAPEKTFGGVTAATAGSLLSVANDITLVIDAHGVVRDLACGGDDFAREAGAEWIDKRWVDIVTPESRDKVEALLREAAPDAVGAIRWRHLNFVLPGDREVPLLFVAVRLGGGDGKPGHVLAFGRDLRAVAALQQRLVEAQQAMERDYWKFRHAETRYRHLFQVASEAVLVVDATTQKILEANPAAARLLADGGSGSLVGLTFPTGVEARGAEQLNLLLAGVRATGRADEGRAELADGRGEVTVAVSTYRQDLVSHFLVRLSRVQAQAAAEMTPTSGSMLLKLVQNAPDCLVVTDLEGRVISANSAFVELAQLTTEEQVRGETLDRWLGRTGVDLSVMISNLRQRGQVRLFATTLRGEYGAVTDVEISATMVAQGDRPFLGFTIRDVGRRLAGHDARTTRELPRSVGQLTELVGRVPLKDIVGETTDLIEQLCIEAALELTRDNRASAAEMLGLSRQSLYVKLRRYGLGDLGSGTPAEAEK
Briefly: DNase I footprinting. The following applies: EMSA: 5 nM probe, 25 mM Tris-HCl pH 8.0, 100 mM NaCl, 2 mM MgCl2, 6% glycerol, 50 ug/ml heparin, room temperature 30 min (5 mM DTT if reduced); footprint: ….

Series [2] concerns the target Rubrivivax gelatinosus PpsR (Rubrivivax gelatinosus). Briefly: SEC; Superose 12 in 20 mM Tris-HCl (pH 8.0), 500 mM NaCl, 6% glycerol, 0.5 ml/min; molecular weight estimated from a standard curve (Gel Filtration Standard, BioRad).
Series [3] concerns PpsR C436A (Rubrivivax gelatinosus). The series can be described thus: EMSA. Conditions: EC50, EMSA: 5 nM probe, 25 mM Tris-HCl pH 8.0, 100 mM NaCl, 2 mM MgCl2, 6% glycerol, 50 ug/ml heparin, room temperature 30 min (5 mM DTT if reduced), footprint: ….
In series [4] the test system is PpsR (Rubrivivax gelatinosus). Briefly: EMSA. The following applies: EC50, EMSA: 5 nM probe, 25 mM Tris-HCl pH 8.0, 100 mM NaCl, 2 mM MgCl2, 6% glycerol, 50 ug/ml heparin, room temperature 30 min (5 mM DTT if reduced), footprint: ….

Consider “ACCAGTTTCCGTGCTCGACCCGCACGTGGGTTGGCTTCTGTAGCCCTCGGATTTCTCCCTACCGACATGTGTAACGCTACGCTGACAGGGTGGGGGCGTCAACATGTCGTGACACCCCCGCAACGCTGAATGTGTCGCGGCTCTGATCTATGACAAATTGCCGGGGTCCGGCGGGCCTCGGGAGCTCT (double strand) [pucB promoter footprint probe]”, for which, in series [1], the binding entry was “binds”.
Regarding “ATCCTGCTTTCCGGCCGCGCGCGGGGCTGCGGCATCCGACTTCATCAGCATCCGTCGAGCTTGTCCTAAGGCAGGGATTGTGTCAACGACAATTGACGCTCTGTTTTGTCAAGCGCAAGATTCAGCCCCATGGCAAGGCCCGCGTTGTCCGCTGTAGCGGAGTTGCTCAAACCGATCACCTGGTTCCCTCCGAT (double strand) [crtI promoter footprint probe]”, the binding result in series [1] was “binds”.
In the case of “Rubrivivax gelatinosus PpsR (natural protein)”, the stoichiometry N in series [2] is 4.
Take crtI promoter EMSA probe: the K half in series [3] (oxidized (untreated)) is 146 nM; in series [3] (reduced, 5 mM DTT), 147 nM; in series [4] (oxidized (untreated)) it was 80.5 nM; in series [4] (reduced, 5 mM DTT), 86.5 nM.
In the case of pucB promoter EMSA probe, the K half in series [3] (oxidized (untreated)) was 94.1 nM; in series [3] (reduced, 5 mM DTT), 93.3 nM; in series [4] (oxidized (untreated)), 49.8 nM; in series [4] (reduced, 5 mM DTT), 63.3 nM.
